Data from IntAct's records for PubMed 22020124.

B1: Centrosomal P4.1-associated protein (Homo sapiens), Q9HC77 (parent)
chain: MFLMPTSSELNSGQNFLTQWMTNPSRAGVILNRGFPILEADKEKRAAVDISTSFPIKGTHFSDSFSFINEEDSLLEEQKLESNNPYKPQSDKSETHTAFPCIKKGPQVAACHSAPGHQEENKNDFIPDLASEFKEGAYKDPLFKKLEQLKEVQQKKQEQLKRQQLEQLQRLMEEQEKLLTMVSGQCTLPGLSLLPDDQSQKHRSPGNTTTGERATCCFPSYVYPDPTQEETYPSNILSHEQSNFCRTAHGDFVLTSKRASPNLFSEAQYQEAPVEKNNLKEENRNHPTGESILCWEKVTEQIQEANDKNLQKHDDSSEVANIEERPIKAAIGERKQTFEDYLEEQIQLEEQELKQKQLKEAEGPLPIKAKPKQPFLKRGEGLARFTNAKSKFQKGKESKLVTNQSTSEDQPLFKMDRQQLQRKTALKNKELCADNPILKKDSKARTKSGSVTLSQKPKMLKCSNRKSLSPSGLKIQTGKKCDGQFRDQIKFENKVTSNNKENVTECPKPCDTGCTGWNKTQGKDRLPLSTGPASRLAAKSPIRETMKESESSLDVSLQKKLETWEREKEKENLELDEFLFLEQAADEISFSSNSSFVLKILERDQQICKGHRMSSTPVKAVPQKTNPADPISHCNRSEDLDHTAREKESECEVAPKQLHSLSSADELREQPCKIRKAVQKSTSENQTEWNARDDEGVPNSDSSTDSEEQLDVTIKPSTEDRERGISSREDSPQVCDDKGPFKDTRTQEDKRRDVDLDLSDKDYSSDESIMESIKHKVSEPSRSSSLSLSKMDFDDERTWTDLEENLCNHDVVLGNESTYGTPQTCYPNNEIGILDKTIKRKIAPVKRGEDLSKSRRSRSPPTSELMMKFFPSLKPKPKSDSHLGNELKLNISQDQPPGDNARSQVLREKIIELETEIEKFKAENASLAKLRIERESALEKLRKEIADFEQQKAKELARIEEFKKEEMRKLQKERKVFEKYTTAARTFPDKKEREEIQTLKQQIADLREDLKRKETKWSSTHSRLRSQIQMLVRENTDLREEIKVMERFRLDAWKRAEAIESSLEVEKKDKLANTSVRFQNSQISSGTQVEKYKKNYLPMQGNPPRRSKSAPPRDLGNLDKGQAASPREPLEPLNFPDPEYKEEEEDQDIQGEISHPDGKVEKVYKNGCRVILFPNGTRKEVSADGKTITVTFFNGDVKQVMPDQRVIYYYAAAQTTHTTYPEGLEVLHFSSGQIEKHYPDGRKEITFPDQTVKNLFPDGQEESIFPDGTIVRVQRDGNKLIEFNNGQRELHTAQFKRREYPDGTVKTVYANGHQETKYRSGRIRVKDKEGNVLMDTEL
partner: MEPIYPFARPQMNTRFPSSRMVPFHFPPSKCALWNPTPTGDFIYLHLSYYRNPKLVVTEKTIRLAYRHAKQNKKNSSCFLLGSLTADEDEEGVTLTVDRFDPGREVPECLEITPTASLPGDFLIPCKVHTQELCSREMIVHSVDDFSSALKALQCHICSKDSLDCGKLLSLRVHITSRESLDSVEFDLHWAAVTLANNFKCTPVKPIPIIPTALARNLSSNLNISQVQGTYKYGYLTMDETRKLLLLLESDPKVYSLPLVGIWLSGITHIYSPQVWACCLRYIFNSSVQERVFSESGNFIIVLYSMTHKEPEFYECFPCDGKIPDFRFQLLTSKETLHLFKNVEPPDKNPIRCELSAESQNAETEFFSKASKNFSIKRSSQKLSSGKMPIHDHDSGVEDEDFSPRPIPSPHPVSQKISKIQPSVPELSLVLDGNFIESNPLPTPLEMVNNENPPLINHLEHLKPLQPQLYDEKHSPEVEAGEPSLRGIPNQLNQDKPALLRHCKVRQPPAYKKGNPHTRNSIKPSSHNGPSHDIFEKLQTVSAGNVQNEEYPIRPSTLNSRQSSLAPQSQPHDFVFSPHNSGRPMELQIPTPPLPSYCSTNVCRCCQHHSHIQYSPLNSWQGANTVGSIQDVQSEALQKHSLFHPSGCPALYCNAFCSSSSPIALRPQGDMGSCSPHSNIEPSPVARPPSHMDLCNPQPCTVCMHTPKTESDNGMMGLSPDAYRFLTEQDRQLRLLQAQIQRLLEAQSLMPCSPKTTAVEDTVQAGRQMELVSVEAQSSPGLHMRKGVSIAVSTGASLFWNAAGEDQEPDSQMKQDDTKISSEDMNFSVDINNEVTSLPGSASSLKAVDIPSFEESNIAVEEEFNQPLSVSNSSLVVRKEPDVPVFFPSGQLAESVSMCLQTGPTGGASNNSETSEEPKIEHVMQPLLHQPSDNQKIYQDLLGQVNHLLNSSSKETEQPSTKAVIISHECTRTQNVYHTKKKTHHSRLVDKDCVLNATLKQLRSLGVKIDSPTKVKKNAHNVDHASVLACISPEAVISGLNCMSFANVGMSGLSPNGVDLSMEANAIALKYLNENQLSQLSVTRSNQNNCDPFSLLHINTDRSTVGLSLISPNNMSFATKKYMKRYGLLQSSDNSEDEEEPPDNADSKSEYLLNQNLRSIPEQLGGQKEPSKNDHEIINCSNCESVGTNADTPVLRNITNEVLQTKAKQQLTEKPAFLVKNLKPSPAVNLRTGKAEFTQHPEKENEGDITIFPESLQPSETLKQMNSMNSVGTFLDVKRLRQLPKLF

Variants of: B1
Conditions: with stil_human STIL

effect of a mutation on the interaction	Variant
decreasing interaction	E1235V

Variants of: B1
Conditions: with stil_human STIL
Remark: another data set of the same source

effect of a mutation on the interaction	Variant
disrupting interaction	E1235V
